Reference: patent US20170088631A1

Assays:
[1] = target: Carcinoembryonic Antigen (CEA) (human) (UniProt P06731); assay: SPR at 25 C; IL-2 qm
[2] = target: Carcinoembryonic Antigen (CEA) (human) (UniProt P06731); assay: SPR at 25 C; IL-2 wt
[3] = target: IL-2R βγ heterodimer on cells (NK92 cells; human NK cells and CD8+ T cells) (human) (UniProt P14784); assay: cell-based or functional assay
[4] = target: human IL-2R βγ heterodimer (IL-2R β subunit-Fc(hole) / IL-2R γ subunit-Fc(knob) fusion) (human); assay: SPR, human IL-2R βγ heterodimer immobilized on the chip, construct as analyte, 25 C; apparent KD, 1:1 fit
[5] = target: human FAP expressed on stably transfected HEK 293 cells (human) (UniProt Q12884); assay: flow cytometry on HEK293 cells stably transfected with human FAP, 4 C, FITC anti-human F(ab')2 detection
[6] = target: human Fibroblast Activation Protein (FAP), recombinant (human) (UniProt Q12884); assay: SPR (Biacore), His-tagged human FAP captured by anti-His antibody, construct as analyte, 25 C; apparent bivalent affinity (avidity), 1:1 fit

Chain of Carcinoembryonic Antigen (CEA) (human) (P06731 35-685 limits assumed): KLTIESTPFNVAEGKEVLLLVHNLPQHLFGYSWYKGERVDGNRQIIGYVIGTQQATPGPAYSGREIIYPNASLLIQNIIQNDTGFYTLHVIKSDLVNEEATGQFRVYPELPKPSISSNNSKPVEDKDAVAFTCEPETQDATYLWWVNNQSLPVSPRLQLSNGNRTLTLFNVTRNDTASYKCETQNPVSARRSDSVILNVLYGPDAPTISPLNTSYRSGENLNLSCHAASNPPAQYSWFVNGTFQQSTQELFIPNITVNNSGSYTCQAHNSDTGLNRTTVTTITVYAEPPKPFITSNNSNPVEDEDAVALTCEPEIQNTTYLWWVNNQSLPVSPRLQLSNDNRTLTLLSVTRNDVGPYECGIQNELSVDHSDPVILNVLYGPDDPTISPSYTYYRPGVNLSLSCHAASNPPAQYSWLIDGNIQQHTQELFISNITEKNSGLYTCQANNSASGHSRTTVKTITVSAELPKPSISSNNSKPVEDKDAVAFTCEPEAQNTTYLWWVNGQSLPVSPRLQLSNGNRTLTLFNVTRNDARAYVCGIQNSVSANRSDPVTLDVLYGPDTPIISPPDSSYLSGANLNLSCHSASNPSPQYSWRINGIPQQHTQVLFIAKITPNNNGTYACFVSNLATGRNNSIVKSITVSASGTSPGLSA
Chain of human IL-2R βγ heterodimer (IL-2R β subunit-Fc(hole) / IL-2R γ subunit-Fc(knob) fusion) (human) (beta, as listed by the source limits assumed, form in doubt, chain 1 of 2): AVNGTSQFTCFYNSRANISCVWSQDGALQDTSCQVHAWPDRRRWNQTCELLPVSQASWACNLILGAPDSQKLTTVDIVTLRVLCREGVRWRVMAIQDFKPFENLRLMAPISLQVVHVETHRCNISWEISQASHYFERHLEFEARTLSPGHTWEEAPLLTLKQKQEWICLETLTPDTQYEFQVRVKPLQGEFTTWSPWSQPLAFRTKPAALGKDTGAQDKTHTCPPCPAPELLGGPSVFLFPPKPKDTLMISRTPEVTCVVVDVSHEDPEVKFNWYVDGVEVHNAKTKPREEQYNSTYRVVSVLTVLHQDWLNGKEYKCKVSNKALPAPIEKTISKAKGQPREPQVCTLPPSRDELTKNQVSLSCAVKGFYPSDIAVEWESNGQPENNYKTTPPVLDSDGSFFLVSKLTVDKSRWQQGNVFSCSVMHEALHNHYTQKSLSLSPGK
Chain of human IL-2R βγ heterodimer (IL-2R β subunit-Fc(hole) / IL-2R γ subunit-Fc(knob) fusion) (human) (gamma, as listed by the source limits assumed, form in doubt, chain 2 of 2): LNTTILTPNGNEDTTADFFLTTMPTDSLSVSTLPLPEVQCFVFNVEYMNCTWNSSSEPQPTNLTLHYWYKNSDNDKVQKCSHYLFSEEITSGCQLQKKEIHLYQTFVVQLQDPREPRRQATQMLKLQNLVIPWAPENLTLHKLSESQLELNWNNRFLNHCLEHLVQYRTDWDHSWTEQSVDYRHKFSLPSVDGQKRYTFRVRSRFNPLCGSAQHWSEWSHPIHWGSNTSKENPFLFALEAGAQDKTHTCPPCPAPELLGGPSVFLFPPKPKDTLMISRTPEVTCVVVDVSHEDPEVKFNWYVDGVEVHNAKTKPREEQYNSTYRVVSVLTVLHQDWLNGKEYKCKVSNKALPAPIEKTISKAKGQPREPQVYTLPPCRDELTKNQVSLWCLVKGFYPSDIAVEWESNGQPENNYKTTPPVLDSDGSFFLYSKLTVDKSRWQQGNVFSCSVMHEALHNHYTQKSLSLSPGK
Chain of IL-2R βγ heterodimer on cells (NK92 cells; human NK cells and CD8+ T cells) (human) (P14784 27-551, chain 1 of 2): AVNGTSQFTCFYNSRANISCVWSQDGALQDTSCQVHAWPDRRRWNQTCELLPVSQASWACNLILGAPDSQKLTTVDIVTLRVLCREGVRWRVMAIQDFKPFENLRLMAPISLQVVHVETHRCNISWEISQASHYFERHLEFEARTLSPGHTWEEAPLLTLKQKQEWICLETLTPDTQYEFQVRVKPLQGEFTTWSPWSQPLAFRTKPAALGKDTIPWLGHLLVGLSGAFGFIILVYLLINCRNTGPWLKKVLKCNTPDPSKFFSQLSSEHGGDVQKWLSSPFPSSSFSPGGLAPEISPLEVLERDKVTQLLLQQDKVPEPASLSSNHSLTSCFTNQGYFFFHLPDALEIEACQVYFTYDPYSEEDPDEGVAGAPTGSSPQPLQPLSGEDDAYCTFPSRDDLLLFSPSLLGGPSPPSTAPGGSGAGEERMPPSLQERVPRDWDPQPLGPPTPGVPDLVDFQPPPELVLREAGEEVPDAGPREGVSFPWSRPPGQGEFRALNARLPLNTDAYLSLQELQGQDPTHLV
Chain of IL-2R βγ heterodimer on cells (NK92 cells; human NK cells and CD8+ T cells) (human) (P31785 23-369, chain 2 of 2, further chain): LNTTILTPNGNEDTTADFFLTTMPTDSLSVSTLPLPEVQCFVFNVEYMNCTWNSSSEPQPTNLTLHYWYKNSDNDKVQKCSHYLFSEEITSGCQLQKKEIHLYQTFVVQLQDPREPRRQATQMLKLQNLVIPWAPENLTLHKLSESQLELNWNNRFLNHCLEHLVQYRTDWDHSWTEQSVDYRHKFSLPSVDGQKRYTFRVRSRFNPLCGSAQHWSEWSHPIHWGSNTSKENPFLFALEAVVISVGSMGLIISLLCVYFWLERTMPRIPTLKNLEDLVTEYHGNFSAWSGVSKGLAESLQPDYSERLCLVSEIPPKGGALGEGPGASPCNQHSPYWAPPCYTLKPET

CEA-targeted CH1A1A 98/99 2F1-based IgG-IL-2 qm immunoconjugate
Kd [1]: 0.4 nM

CEA-targeted CH1A1A 98/99 2F1-based IgG-IL-2 wt immunoconjugate
Kd [2]: 0.47 nM

FAP-targeted 4G8-based IgG-IL-2 quadruple mutant (qm) immunoconjugate
fold decrease in STAT5 phosphorylation in NK cells and CD8+ T cells (FACS); potency relative to Proleukin [3]: < 10 fold | Kd [4]: 5.9 nM | EC50 [5]: 0.9 nM | Kd [6]: 0.1 nM
